Results: US20090209427A1, “Microbial glyphosate resistant epsps” (priority 2004, published 2009)

Tested on: C=C(OP(=O)(O)O)C(=O)O
Experiment: purified protein, by the assay type
Details: other: C. crescentus EPSPS, 50 mM K+-HEPES pH 7.0, 1 mM shikimate-3-phosphate, varying [14C]PEP

## Caulobacter crescentus EPSPS, native, SEQ ID NO: 9 (Caulobacter vibrioides CB15)
  Km: 2.0 µM
